Reference: patent US20150031617A1, “USE OF THYMOSIN ALPHA FOR TREATMENT OF PURULENT RHINOSINUSITIS” (SCICLONE PHARMACEUTICALS, INC., priority 2012, published 2015)

What was measured:
[1] = tested on: monocytes and granulocytes of patients with purulent rhinosinusitis; assay: monocyte and granulocyte polarization in vitro in patients with purulent rhinosinusitis; assay type: cell-based, human; details: 10 patients; thymalfasin, 0.1 mg/ml; FIG. 1
Procedure: The results in 10 patients were evaluated. The monocyte and granulocyte polarizations in 10 patients were evaluated. Initially, 3 to 4 of the patients started with decreased polarization. […] (See, FIG. 1.) As a control, N-formylmethionyl-leucyl-phenylalanine (fMLP)-induced polarization of healthy donor monocytes. (See, FIG. 2.) Concentrations were TP-1, 1 mg/ml, thymalfasin, 0.1 mg/ml and fMLP, 10^−8M.

[2] = cited from earlier work

Substance: (N-acetyl)-Ser-Asp-Ala-Ala-Val-Asp-Thr-Ser-Ser-Glu-Ile-Thr-Thr-Lys-Asp-Leu-Lys-Glu-Lys-Lys-Glu-Val-Val-Glu-Glu-Ala-Glu-Asn-OH (Ac-SDAAVDTSSEITTKDLKEKKEVVEEAEN-OH) [TA1]
- monocyte and granulocyte polarization in vitro [1]: worked excellently in improving and restoring the polarization in vitro
- Peak plasma levels ([2]; after injection of 3.2 mg of TA1 (about 40 μg/kg)): approximately 100 ng/ml
- TA1 circulating in serum ([2]; circulating serum level): 0.1 to 1.0 ng/mL
- half-life in the circulation ([2]; in the circulation): about 2 hours
